Experiment [1] addresses T1, DENV2 sE strain FGA02, wild type (recombinant E ectodomain) (Dengue virus 2, strain FGA-02 …, strain).
T1 construct: also called sE WT; DENV2 FGA02 WT
The experiment can be described thus: ELISA; capture ELISA: mAb coated at 5 μg ml^−1 on MAXISORP plates; serial dilutions of Strep-tagged sE in solution; ALP-labelled Strep-Tactin. Conditions: one partner purified.

Experiment [2] deals with T1, DENV2 sE strain FGA02, wild type …. The experiment in a line: SEC-MALS; mixture of 150 μg DENV2 FGA02 sE with 300 μg Fab, Superdex 200 10/300 GL, run in a similar manner as sE alone. The conditions noted are these: both partners purified. A general note: Size exclusion chromatography separates by hydrodynamic size, large species first.

B1: anti-EDE2 mAb 747(4)A11, human IgG (antibody, V domains shown)
VH: EVQLVESGGGLVRPGGSLRLSCAASGFSYSNHWMHWVRQAPGKGLVWVSRINSDGSTRNYADFVKGRFTISRDNAENTLYLEMNSLTADDTAVYYCVRDGVRFYYDSTGYYPDSFFKYGMDVWGQGTTVTVSS
VL: QSVLTQPVSVSGSPGQSITISCTGTSSNADTYNLVSWYQQRPGKAPKLMIYEGTKRPSGVSNRFSASKSATAASLTISGLQPEDEADYYCCSYATSRTLVFGGGTKLTVV
As for B1, in experiment [1], the binding result is recorded as “binds”.

B2: anti-EDE2 Fab A11 (Fab of human mAb 747(4)A11) (Fab, V domains shown)
VH: B1 VH
VL: B1 VL
Turning to B2, the binding result in experiment [2] is given as “binds”.

B3: anti-EDE2 mAb 747(4)B7, human IgG (antibody, V domains shown)
VH: EVQLVESGGGLVQPGGSLKLSCAASGFTFSSHWMHWVRQAPGKGLVWVSRTNSDGSSTSYADSVKGRFMISRDNSKNTVYLHMNGLRAEDTAVYFCARDGVRYYYDSTGYYPDNFFQYGLDVWGQGTTVTVSS
VL: QSALTQPASVSGSPGQSITISCTGISSDVETYNLVSWYEQHPGKAPKLIIYEASKRPSGVSNRFSGSKSGNTASLAISGLQAEDEADYYCCSYAGGKSLVFGGGTRLTVL
In the case of B3, the binding result in experiment [1] was “binds”.

The values above are taken from paper PMC5457521 (Nature Communications, 2017).
